B1: 10-D11 (Fab, V domains shown)
VH: QVQLVQSGAEVKKPGASVKVSCKASGYTFTNYDIIWVRQAPGQGLEWMGYINPYNGRREYNEKFKGRVTMTRDTSTSTVYMELSSLRSEDTAVYYCARLLKYRRFRYYAIDYWGQGTTVTVSS
VL: DIQMTQSPSSLSASVGDRVTITCRASENVYRNLAWYQQKPGKAPKLLIYAASNLQSGVPSRFSGSGSGTDFTFTISSLQPEDIATYYCQHFWYSPFTFGQGTKLEIK
notes: Fab
B2: 11-D8 (Fab, V domains shown)
VH: QVQLVQSGAEVKKPGASVKVSCKASGYTFTNYDIIWVRQAPGQGLEWMGYINPYNGRREYNEKFKGRVTMTRDTSTSTVYMELSSLRSEDTAVYYCARLLKYRRFRYYAIDYWGQGTTVTVSS
VL: DIQMTQSPSSLSASVGDRVTITCRASTNVYSNLAWYQQKPGKAPKLLIYAASNLQSGVPSRFSGSGSGTDFTFTISSLQPEDIATYYCQHFWGSPFTFGQGTKLEIK
notes: Fab
B3: 12-A8 (Fab, V domains shown)
VH: QVQLVQSGAEVKKPGASVKVSCKASGYTFTNYDIIWVRQAPGQGLEWMGYINPYNDGRKENEKFKGRVTMTRDTSTSTVYMELSSLRSEDTAVYYCARLLKYRRFRYYAIDYWGQGTTVTVSS
VL: DIQMTQSPSSLSASVGDRVTITCRASENVYSNLAWYQQKPGKAPKLLIYAASNLQSGVPSRFSGSGSGTDFTFTISSLQPEDIATYYCQHFWGSPFTFGQGTKLEIK
notes: Fab
B4: 10-F10 (Fab, V domains shown)
VH: QVQLVQSGAEVKKPGASVKVSCKASGYTFTNYDIIWVRQAPGQGLEWMGYINPYNDGRKENEKFKGRVTMTRDTSTSTVYMELSSLRSEDTAVYYCARLLKYRRFRYYAIDYWGQGTTVTVSS
VL: DIQMTQSPSSLSASVGDRVTITCRASENVYLNLAWYQQKPGKAPKLLIYAASNLQSGVPSRFSGSGSGTDFTFTISSLQPEDIATYYCQHFWGSPFTFGQGTKLEIK
notes: Fab
B5: 12-C8 (Fab, V domains shown)
VH: QVQLVQSGAEVKKPGASVKVSCKASGYTFTNYDIIWVRQAPGQGLEWMGYINPYNGRREYNEKFKGRVTMTRDTSTSTVYMELSSLRSEDTAVYYCARLLKYRRFRYYAIDYWGQGTTVTVSS
VL: DIQMTQSPSSLSASVGDRVTITCRASKNVYSNLAWYQQKPGKAPKLLIYAASNLQSGVPSRFSGSGSGTDFTFTISSLQPEDIATYYCQHFWGSPFTFGQGTKLEIK
notes: Fab
B6: 11-G10 (Fab, V domains shown)
VH: QVQLVQSGAEVKKPGASVKVSCKASGYTFTNYDIIWVRQAPGQGLEWMGYINPYNGRREYNEKFKGRVTMTRDTSTSTVYMELSSLRSEDTAVYYCARLLKYRRFRYYAIDYWGQGTTVTVSS
VL: DIQMTQSPSSLSASVGDRVTITCRASENVYSNLAWYQQKPGKAPKLLIYAASNLQSGVPSRFSGSGSGTDFTFTISSLQPEDIATYYCQHFWGSPFTFGQGTKLEIK
notes: Fab
B7: 11-G2 (Fab, V domains shown)
VH: QVQLVQSGAEVKKPGASVKVSCKASGYTFTNYDIIWVRQAPGQGLEWMGYINPYNDGRKENEKFKGRVTMTRDTSTSTVYMELSSLRSEDTAVYYCARLLKYRRFRYYAIDYWGQGTTVTVSS
VL: DIQMTQSPSSLSASVGDRVTITCRASENVYSNLAWYQQKPGKAPKLLIYAASNLQSGVPSRFSGSGSGTDFTFTISSLQPEDIATYYCQHFWDSPFTFGQGTKLEIK
notes: Fab
B8: 11-G5 (Fab, V domains shown)
VH: QVQLVQSGAEVKKPGASVKVSCKASGYTFTNYDIIWVRQAPGQGLEWMGYINPYNGRREYNEKFKGRVTMTRDTSTSTVYMELSSLRSEDTAVYYCARLLKYRRFRYYAIDYWGQGTTVTVSS
VL: DIQMTQSPSSLSASVGDRVTITCRASENVYYNLAWYQQKPGKAPKLLIYAASNLQSGVPSRFSGSGSGTDFTFTISSLQPEDIATYYCQHFWYSPFTFGQGTKLEIK
notes: Fab
B9: 10-G2 (Fab, V domains shown)
VH: QVQLVQSGAEVKKPGASVKVSCKASGYTFTNYDIIWVRQAPGQGLEWMGYINPYNGRREYNEKFKGRVTMTRDTSTSTVYMELSSLRSEDTAVYYCARLLKYRRFRYYAIDYWGQGTTVTVSS
VL: DIQMTQSPSSLSASVGDRVTITCRASEAVYSNLAWYQQKPGKAPKLLIYAASNLQSGVPSRFSGSGSGTDFTFTISSLQPEDIATYYCQHFWGSPFTFGQGTKLEIK
notes: Fab
B10: 12-B5 (Fab, V domains shown)
VH: QVQLVQSGAEVKKPGASVKVSCKASGYTFTNYDIIWVRQAPGQGLEWMGYINPYNRRIEYNEKFKGRVTMTRDTSTSTVYMELSSLRSEDTAVYYCARLLKYRRFRYYAIDYWGQGTTVTVSS
VL: DIQMTQSPSSLSASVGDRVTITCRASENVYSHLAWYQQKPGKAPKLLIYAASNLQSGVPSRFSGSGSGTDYTFTISSLQPEDIATYYCQHFWGSPFTFGQGTKLEIK
notes: Fab
B11: 11-C6 (Fab, V domains shown)
VH: QVQLVQSGAEVKKPGASVKVSCKASGYTFTNYDIIWVRQAPGQGLEWMGYINPYNGRREYNEKFKGRVTMTRDTSTSTVYMELSSLRSEDTAVYYCARLLKYRRFRYYAIDYWGQGTTVTVSS
VL: DIQMTQSPSSLSASVGDRVTITCRASSNVYSNLAWYQQKPGKAPKLLIYAASNLQSGVPSRFSGSGSGTDYTFTISSLQPEDIATYYCQHFWGSPFTFGQGTKLEIK
notes: Fab
B12: 10-G3 (Fab, V domains shown)
VH: QVQLVQSGAEVKKPGASVKVSCKASGYTFTNYDIIWVRQAPGQGLEWMGYINPYNERTEYNEKFKGRVTMTRDTSTSTVYMELSSLRSEDTAVYYCARLLKYRRFRYYAIDYWGQGTTVTVSS
VL: DIQMTQSPSSLSASVGDRVTITCRASENVYRNLAWYQQKPGKAPKLLIYIASNLQSGVPSRFSGSGSGTDFTFTISSLQPEDIATYYCQHFVYSPFTFGQGTKLEIK
notes: Fab
B13: 11-C7 (Fab, V domains shown)
VH: QVQLVQSGAEVKKPGASVKVSCKASGYTFTNYDIIWVRQAPGQGLEWMGYINPYNRRIEYNEKFKGRVTMTRDTSTSTVYMELSSLRSEDTAVYYCARLLKYRRFRYYAIDYWGQGTTVTVSS
VL: DIQMTQSPSSLSASVGDRVTITCRASENVYSHLAWYQQKPGKAPKLLIYAASNLQSGVPSRFSGSGSGTDFTFTISSLQPEDIATYYCQHFWGSPFTFGQGTKLEIK
notes: Fab
B14: 11-D7 (Fab, V domains shown)
VH: QVQLVQSGAEVKKPGASVKVSCKASGYTFTNYDIIWVRQAPGQGLEWMGYINPYNGRREYNEKFKGRVTMTRDTSTSTVYMELSSLRSEDTAVYYCARLLKYRRFRYYAIDYWGQGTTVTVSS
VL: DIQMTQSPSSLSASVGDRVTITCRASENVYRNLAWYQQKPGKAPKLLIYAASNLQSGVPSRFSGSGSGTDFTFTISSLQPEDIATYYCQHFWGSPFTFGQGTKLEIK
notes: Fab
B15: 10-E10 (Fab, V domains shown)
VH: QVQLVQSGAEVKKPGASVKVSCKASGYTFTNYDIIWVRQAPGQGLEWMGYINPYNDGRKENEKFKGRVTMTRDTSTSTVYMELSSLRSEDTAVYYCARLLKYRRFRYYAIDYWGQGTTVTVSS
VL: DIQMTQSPSSLSASVGDRVTITCRASENVYSNLAWYQQKPGKAPKLLIYAASNLQSGVPSRFSGSGSGTDFTFTISSLQPEDIATYYCQHFWGSPFTFGQGTKLEIK
notes: Fab
B16: 10-F12 (Fab, V domains shown)
VH: QVQLVQSGAEVKKPGASVKVSCKASGYTFTNYDIIWVRQAPGQGLEWMGYINPYNGRREYNEKFKGRVTMTRDTSTSTVYMELSSLRSEDTAVYYCARLLKYRRFRYYAIDYWGQGTTVTVSS
VL: DIQMTQSPSSLSASVGDRVTITCRASENVYRNLAWYQQKPGKAPKLLIYAASNLQSGVPSRFSGSGSGTDFTFTISSLQPEDIATYYCQHFWGSPFTFGQGTKLEIK
notes: Fab
B17: 11-B11 (Fab, V domains shown)
VH: QVQLVQSGAEVKKPGASVKVSCKASGYTFTNYDIIWVRQAPGQGLEWMGYINPYNGRREYNEKFKGRVTMTRDTSTSTVYMELSSLRSEDTAVYYCARLLKYRRFRYYAIDYWGQGTTVTVSS
VL: DIQMTQSPSSLSASVGDRVTITCRASEPVYSNLAWYQQKPGKAPKLLIYAASNLQSGVPSRFSGSGSGTDFTFTISSLQPEDIATYYCQHFWGSPFTFGQGTKLEIK
notes: Fab
B18: 11-F9 (Fab, V domains shown)
VH: QVQLVQSGAEVKKPGASVKVSCKASGYTFTNYDIIWVRQAPGQGLEWMGYINPYNDGRKENEKFKGRVTMTRDTSTSTVYMELSSLRSEDTAVYYCARLLKYRRFRYYAIDYWGQGTTVTVSS
VL: DIQMTQSPSSLSASVGDRVTITCRASENVYRNLAWYQQKPGKAPKLLIYAASNLQSGVPSRFSGSGSGTDFTFTISSLQPEDIATYYCQHFWYSPFTFGQGTKLEIK
notes: Fab
B19: 12-C9 (Fab, V domains shown)
VH: QVQLVQSGAEVKKPGASVKVSCKASGYTFTNYDIIWVRQAPGQGLEWMGYINPYNGRTEYNEKFKGRVTMTRDTSTSTVYMELSSLRSEDTAVYYCARLLKYRRFRYYAIDYWGQGTTVTVSS
VL: DIQMTQSPSSLSASVGDRVTITCRASKNVYSNLAWYQQKPGKAPKLLIYAASNLQSGVPSRFSGSGSGTDFTFTISSLQPEDIATYYCQQFWYSPFTFGQGTKLEIK
notes: Fab
B20: 11-B9 (Fab, V domains shown)
VH: QVQLVQSGAEVKKPGASVKVSCKASGYTFTNYDIIWVRQAPGQGLEWMGYINPYNGRREYNEKFKGRVTMTRDTSTSTVYMELSSLRSEDTAVYYCARLLKYRRFRYYAIDYWGQGTTVTVSS
VL: DIQMTQSPSSLSASVGDRVTITCRASTNVYRNLAWYQQKPGKAPKLLIYAASNLQSGVPSRFSGSGSGTDFTFTISSLQPEDIATYYCQHFWGSPFTFGQGTKLEIK
notes: Fab
B21: 10-F7 (Fab, V domains shown)
VH: QVQLVQSGAEVKKPGASVKVSCKASGYTFTNYDIIWVRQAPGQGLEWMGYINPYNGRREYNEKFKGRVTMTRDTSTSTVYMELSSLRSEDTAVYYCARLLKYRRFRYYAIDYWGQGTTVTVSS
VL: DIQMTQSPSSLSASVGDRVTITCRASENVYSHLAWYQQKPGKAPKLLIYAASNLQSGVPSRFSGSGSGTDFTFTISSLQPEDIATYYCQHFVYSPFTFGQGTKLEIK
notes: Fab

Chain of TrkB (Q16620 32-430 limits assumed): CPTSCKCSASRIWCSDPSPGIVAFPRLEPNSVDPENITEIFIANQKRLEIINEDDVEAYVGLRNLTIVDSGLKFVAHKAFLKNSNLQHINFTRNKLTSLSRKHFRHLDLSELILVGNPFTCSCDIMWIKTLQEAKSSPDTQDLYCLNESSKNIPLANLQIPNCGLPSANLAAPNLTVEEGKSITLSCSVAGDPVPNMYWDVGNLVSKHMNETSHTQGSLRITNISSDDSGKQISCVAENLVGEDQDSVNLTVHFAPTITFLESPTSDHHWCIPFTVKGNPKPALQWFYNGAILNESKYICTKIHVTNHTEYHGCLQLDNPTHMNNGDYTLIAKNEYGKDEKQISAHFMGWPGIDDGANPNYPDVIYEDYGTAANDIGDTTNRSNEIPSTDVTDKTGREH

In the assay the target is TrkB (Homo sapiens (Human), UniProt Q16620 32-430). Put plainly: koff of Fab at 25 C; T1/2=Log2/koff. The procedure, abridged:
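Monovalent Fab fragments were tested at 25° C by surface plasmon resonance on a Biacore instrument, against TrkB extracellular-domain monomer amine-coupled to the chip at low capacity. Fabs were injected low to high as a 3-fold serial dilution from 100 nM for 84 sec, with a 10 minute dissociation after the top sample. The dissociation half-life was calculated from koff, which was fitted to a Langmuir binding model in BIAevaluation. The formula used was T1/2 = Log 2/koff.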
B1 displayed a T1/2 of 4.2 min. Under B2 stands 2.5 min; under B3, 3.3 min; under B4, 4.1 min. With B5 the figure was 8 min. With B6 the figure was 3 min; with B7, 1.5 min; with B8, 5.9 min.

In the case of B9, the T1/2 stood at 5.2 min. With B10 the figure was 10 min; with B11, 10.8 min. Under B12 stands 4.8 min; under B13, 4.9 min. The molecule B14 had a T1/2 of 4.1 min. Under B15 stands 2.7 min; under B16, 5.7 min; under B17, 5.5 min. Molecule B18 displayed a T1/2 of 6.2 min.

The molecule B19 returned a T1/2 of 0.8 min. Consider B20, for which the T1/2 amounted to 4.9 min. Under B21 stands 4.9 min.

Values taken from patent US20100196390A1 (RINAT NEUROSCIENCE, published 2010).
